Test results reported in paper PMC7857489, “Degradation of MinD oscillator complexes by Escherichia coli ClpXP” (The Journal of Biological Chemistry, 2020).

B1: ClpP (enzyme)
chain: not shown
notes: ClpP, serine protease of Escherichia coli; concentrations are reported as ClpP tetradecamers; Purified as a native protein by earlier published methods; source: E. coli BL21 (λDE3), overexpressed from a plasmid, purified as native protein; copies: 14
B2: MinC (natural protein, E. coli, UniProt P18196 1-231, looked up)
chain: MSNTPIELKGSSFTLSVVHLHEAEPKVIHQALEDKIAQAPAFLKHAPVVLNVSALEDPVNWSAMHKAVSATGLRVIGVSGCKDAQLKAEIEKMGLPILTEGKEKAPRPAPTPQAPAQNTTPVTKTRLIDTPVRSGQRIYAPQCDLIVTSHVSAGAELIADGNIHVYGMMRGRALAGASGDRETQIFCTNLMAELVSIAGEYWLSDQIPAEFYGKAARLQLVENALTVQPLN
notes: concentrations are reported as MinC dimers; Purified as a native protein by earlier published methods; source: E. coli BL21 (λDE3), overexpressed from a plasmid (pEt-MinC), purified as native protein

Tests used:
ClpX = target: T1, ClpX (E. coli, UniProt P0A6H1 1-424); experiment: negative-stain transmission electron microscopy; MinC (4 μM), MinD or MinD(R3E) (8 μM), ATP (8 mM), with or without ClpXP, or ClpXP with ATP alone, in copolymer assembly buffer; carbon/formvar grids, fixed with glutaraldehyde, stained with uranyl acetate; settings: both partners purified
T1 construct: ClpX, AAA+ unfoldase of Escherichia coli; concentrations are reported as ClpX hexamers; Purified as a native protein by earlier published methods; also called wildtype ClpX; source: E. coli BL21 (λDE3), overexpressed from a plasmid, purified as native protein

MinD(R3E) = target: T2, MinD(R3E) (E. coli, UniProt P0AEZ3 1-270, R3E); experiment: 90° light scatter; MinC (4 μM) and MinD or MinD(R3E) (8 μM) in 20 mM MES pH 6.5, 100 mM KCl, 10 mM MgCl2; after 5 min ATP added alone or with ClpX (0.75 μM), ClpX(E185Q) (0.75 μM), ClpP (0.9 μM) or ClpX and ClpP, with an ATP-regenerating system; monitored for 30 min more; settings: both partners purified
T2 construct: MinD of Escherichia coli with Arg 3 changed to glutamate by site-directed mutagenesis; Same construct as m1 apart from R3E; source: E. coli BL21 (λDE3), overexpressed from a plasmid (pEt-MinD(R3E)), purified
T2 sequence (looked up): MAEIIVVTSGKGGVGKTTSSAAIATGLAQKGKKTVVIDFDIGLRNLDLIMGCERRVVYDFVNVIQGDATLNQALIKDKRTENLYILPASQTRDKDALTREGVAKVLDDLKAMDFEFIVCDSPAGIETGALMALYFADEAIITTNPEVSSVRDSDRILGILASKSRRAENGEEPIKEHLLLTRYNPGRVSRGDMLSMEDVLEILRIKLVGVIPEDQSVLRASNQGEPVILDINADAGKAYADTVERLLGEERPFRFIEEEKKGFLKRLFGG

Row | binding result (ClpX) | binding result (MinD(R3E)) | Binder
1 | binds | – | B1
2 | – | binds | B2
